Results: publication PMC10582448, “The Histone Chaperones SET/TAF‐1β and NPM1 Exhibit Conserved Functionality in Nucleosome Remodeling and Histone Eviction in a Cytochrome c‐Dependent Manner”

How the values were obtained:
SET/TAF-Ibeta = SET/TAF-Ibeta (Homo sapiens, UniProt Q01105-2 1-277); test: NMR; 10 mM sodium phosphate pH 7.4; NMR: 10 mM sodium phosphate pH 7.4, 1 mM ascorbate, 1 mM TCEP, 5% D2O, 25 C; optical tweezers: 25 mM HEPES, 50 mM KCl, 0.1 mM EDTA, pH 7.5; conditions: protein: recombinant; tags: N-terminal 6xHis; chain copies: 2; blunt
SET/TAF-Ibeta, sequence (Q01105 other isoform, or with tags, fused parts or gaps): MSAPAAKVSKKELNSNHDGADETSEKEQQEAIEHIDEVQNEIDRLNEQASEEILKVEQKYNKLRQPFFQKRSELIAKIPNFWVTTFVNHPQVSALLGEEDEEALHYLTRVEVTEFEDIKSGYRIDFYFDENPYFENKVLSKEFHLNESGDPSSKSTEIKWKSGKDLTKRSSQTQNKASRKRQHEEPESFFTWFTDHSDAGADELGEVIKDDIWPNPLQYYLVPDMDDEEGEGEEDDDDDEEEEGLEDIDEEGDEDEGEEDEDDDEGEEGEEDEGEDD

histone H3 = histone H3 (Xenopus laevis, UniProt P84233 1-136); test: NMR; H3 competes with Cc for dsDNA; NMR: 10 mM sodium phosphate pH 7.4, 1 mM ascorbate, 1 mM TCEP, 5% D2O, 25 C; optical tweezers: 25 mM HEPES, 50 mM KCl, 0.1 mM EDTA, pH 7.5; conditions: protein: recombinant; blunt
cytochrome c = cytochrome c (Homo sapiens, UniProt P99999 2-105); test: NMR; reduced Cc 13 uM, dsDNA 26 uM; Met80 signal decreased on dsDNA addition; NMR: 10 mM sodium phosphate pH 7.4, 1 mM ascorbate, 1 mM TCEP, 5% D2O, 25 C; optical tweezers: 25 mM HEPES, 50 mM KCl, 0.1 mM EDTA, pH 7.5; conditions: protein: recombinant; blunt
cytochrome c, sequence (P99999 2-105): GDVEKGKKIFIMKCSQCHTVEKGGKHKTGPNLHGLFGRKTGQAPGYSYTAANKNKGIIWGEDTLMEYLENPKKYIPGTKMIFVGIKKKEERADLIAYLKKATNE

B1: 10-mer dsDNA (dsDNA)
DNA 1: TAGCGTAACG
DNA 2: CGTTACGCTA
binding result (SET/TAF-Ibeta): no binding
binding result (histone H3): binds
binding result (cytochrome c): binds
